Laboratory results from article PMC5242376 (Science signaling, 2016).

T1: full-length Fc-fusion MuSK ectodomain (UniProt Q61006 22-494)
T1 sequence (looked up): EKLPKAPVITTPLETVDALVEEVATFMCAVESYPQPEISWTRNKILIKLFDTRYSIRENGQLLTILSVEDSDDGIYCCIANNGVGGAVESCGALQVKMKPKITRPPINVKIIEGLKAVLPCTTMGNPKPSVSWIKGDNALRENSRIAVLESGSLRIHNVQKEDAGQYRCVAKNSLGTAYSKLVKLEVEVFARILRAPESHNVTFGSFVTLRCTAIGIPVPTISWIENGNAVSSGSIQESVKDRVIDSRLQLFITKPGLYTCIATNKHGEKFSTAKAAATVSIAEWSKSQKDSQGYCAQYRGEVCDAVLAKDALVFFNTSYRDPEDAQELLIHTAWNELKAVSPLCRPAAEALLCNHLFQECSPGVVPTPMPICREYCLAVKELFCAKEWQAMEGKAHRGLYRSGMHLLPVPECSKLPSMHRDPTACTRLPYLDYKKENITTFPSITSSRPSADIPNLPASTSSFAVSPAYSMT

T2: His-tagged MuSK ectodomain (UniProt Q61006 22-494)
T2 sequence (looked up): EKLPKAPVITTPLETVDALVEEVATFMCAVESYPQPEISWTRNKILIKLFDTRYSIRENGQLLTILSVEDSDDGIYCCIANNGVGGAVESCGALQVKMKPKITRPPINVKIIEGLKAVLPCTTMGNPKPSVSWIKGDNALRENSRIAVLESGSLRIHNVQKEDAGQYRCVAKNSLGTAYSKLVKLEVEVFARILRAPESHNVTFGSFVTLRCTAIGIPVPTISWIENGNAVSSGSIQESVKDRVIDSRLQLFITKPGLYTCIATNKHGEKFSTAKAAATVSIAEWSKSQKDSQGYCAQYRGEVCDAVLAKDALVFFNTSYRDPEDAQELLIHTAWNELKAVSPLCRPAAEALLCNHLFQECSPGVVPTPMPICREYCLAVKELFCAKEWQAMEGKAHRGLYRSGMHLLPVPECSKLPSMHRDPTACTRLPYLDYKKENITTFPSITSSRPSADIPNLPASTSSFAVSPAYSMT


How the values were obtained:
[1] = molecular target: T1, full-length Fc-fusion MuSK ectodomain; experiment: ELISA
[2] = molecular target: T2, His-tagged MuSK ectodomain; experiment: SPR

Binder | EC50 [1] | Kd [2]
recombinant human BMP4 (ligand, UniProt P12644 293-408, looked up) SPKHHSQRARKKNKNCRRHSLYVDFSDVGWNDWIVAPPGYQAFYCHGDCPFPLADHLNSTNHAIVQTLVNSVNSSIPKACCVPTELSAISMLYLDEYDKVVLKNYQEMVVEGCGCR | ~30 nM | 
recombinant human BMP2 (ligand, UniProt P12643 283-396, looked up) QAKHKQRKRLKSSCKRHPLYVDFSDVGWNDWIVAPPGYHAFYCHGECPFPLADHLNSTNHAIVQTLVNSVNSKIPKACCVPTELSAISMLYLDENEKVVLKNYQDMVVEGCGCR |  | 5.6 nM
recombinant human BMP7 (ligand, UniProt P18075 293-431, looked up) STGSKQRSQNRSKTPKNQEALRMANVAENSSSDQRQACKKHELYVSFRDLGWQDWIIAPEGYAAYYCEGECAFPLNSYMNATNHAIVQTLVHFINPETVPKPCCAPTQLNAISVLYFDDSSNVILKKYRNMVVRACGCH |  | 11.8 nM
